Earlier results, collected in publication PMC7619008.

Molecular target: substance P (Rattus norvegicus) (UniProt P06767)
UniProt P06767, sequence (P06767 whole entry, looked up): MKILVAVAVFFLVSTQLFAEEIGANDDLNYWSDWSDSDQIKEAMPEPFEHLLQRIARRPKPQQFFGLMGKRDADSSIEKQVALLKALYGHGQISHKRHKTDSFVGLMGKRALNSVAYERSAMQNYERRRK

In the case of NK1 receptor (from UniProt P14600), the Kd is given as 3 nM.
